The values that follow come from patent publication US20200048649A1 (CENTRE NATIONAL DE LA RECHERCHE SCIENTIFIQUE, published 2020).

In assay [1] the target is T1, Grapevine fanleaf virus (GFLV) isolate F13 particles (capsid made of the coat protein, CP) (Grapevine fanleaf virus isolate F13, UniProt P18474 606-1109).
T1 sequence: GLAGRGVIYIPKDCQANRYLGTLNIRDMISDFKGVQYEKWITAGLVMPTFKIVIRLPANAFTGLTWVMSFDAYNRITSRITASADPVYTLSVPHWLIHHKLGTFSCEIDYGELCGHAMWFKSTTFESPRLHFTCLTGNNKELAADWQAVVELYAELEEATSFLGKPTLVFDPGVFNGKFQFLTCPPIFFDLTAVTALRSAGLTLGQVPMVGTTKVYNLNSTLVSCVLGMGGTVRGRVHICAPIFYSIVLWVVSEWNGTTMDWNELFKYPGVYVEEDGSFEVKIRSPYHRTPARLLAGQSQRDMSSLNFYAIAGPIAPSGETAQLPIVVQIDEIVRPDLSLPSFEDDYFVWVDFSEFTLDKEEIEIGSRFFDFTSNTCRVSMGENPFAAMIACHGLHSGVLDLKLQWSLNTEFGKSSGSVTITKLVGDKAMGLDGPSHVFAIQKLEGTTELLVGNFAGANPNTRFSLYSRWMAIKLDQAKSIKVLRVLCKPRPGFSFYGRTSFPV
Nature of the assay: competitive ELISA on coated GFLV, legend of FIG. 19a. (In general: In an ELISA, binding on a coated surface is turned into a signal by an enzyme label.)

The target of assay [2] is T1, Grapevine fanleaf virus (GFLV) isolate ….
Assay [3] deals with T2, TRCP VLP (virus-like particle of GFLV CP fused at its N-terminus to TagRFP) (Grapevine fanleaf virus isolate F13 (CP …)).
T2 construct: also called TRCP VLPs; VLP-TRCP
Description: dynamic light scattering; TRCP VLP alone 32.0 nm±2 nm.

Assay [4] concerns the target T2, TRCP VLP (virus-like particle of GFLV …). Description: microscale thermophoresis in solution, fluorescent TRCP VLP constant, nanobody titrated, 1:1 model, n=3; SD ±2.91. Background: In MST a laser heats a spot of the sample, and binding alters the fluorescence response.
For assay [5], the target named is T1, Grapevine fanleaf virus (GFLV) isolate …. Description: DAS-ELISA on infected leaves, capture Ab Bioreba, detection Nbp75:ALP.
Assay [6] shares this target. Description: DAS-ELISA on infected leaves, capture by Ab BIOREBA, detection by Nb:ALP.
Assay [7] addresses T2, TRCP VLP (virus-like particle of GFLV …). Description: microscale thermophoresis in solution, fluorescent TRCP VLP constant, nanobody titrated, 1:1 model, n=3; SD ±3.37.
For assay [8] the target is unchanged. Description: microscale thermophoresis in solution, fluorescent TRCP VLP constant, nanobody titrated, 1:1 model, n=3; SD ±13.63.

B1: Strep-tagged Nb125 (VHH)
VHH: QVQLQESGGGSVQAGGSLRLSCAASGYTYSMYCMAWFRQAPGKEREGVAAINSGNRSTYYADSVKGRFTISQDNAKNTVYLIMNSLKPEDTAIYYCAADPQRCGSWTWANMYEYNYWGQGTQVTVSS
For the molecule B1, in assay [1], the binding result is given as “binds”.

B2: Nb122 fused to alkaline phosphatase (VHH)
chain: MAQVQLQESGGGSVQGGGSLRLSCAVSGYRFSSYAMAWFRQAPGKEREAVAAYYRGFGGAQHSTHYAASVTGRFTITQNDALNTGYLQMNNLKPEDTAMYYCALSTADDDDWHSLRRYNYWGQGTQVTVSSGGGSGGGVKQSTIALALLPLLFTPVTKARTPEMPLQTQATSREEPPRLPSKHRPGVKTQATSREEPPRLPSKHRPGVKTQATSREEPPRLPSKHRPGVKTQATSREEPPRLPSKHRPGVKTQATSLEVLENRAAQGDITAPGGARRLTGDQTAALRDSLSDKPAKNIILLIGDGMGDSEITAARNYAEGAGGFFKGIDALPLTGQYTHYALNKKTGKPDYVTDSAASATAWSTGVKTYNGALGVDIHEKDHPTILEMAKAAGLATGNVSTAELQDATPAALVAHVTSRKCYGPSATSEKCPGNALEKGGKGSITEQLLNARADVTLGGGAKTFAETATAGEWQGKTLREQAQARGYQLVSDAASLNSVTEANQQKPLLGLFADGNMPVRWLGPKATYHGNIDKPAVTCTPNPQRNDSVPTLAQMTDKAIELLSKNEKGFFLQVEGASIDKQDHAANPCGQIGETVDLDEAVQRALEFAKKEGNTLVIVTADHAHASQIVAPDTKAPGLTQALNTKDGAVMVMSYGNSEEDSQEHTGSQLRIAAYGPHAAHHHHHH
Usually EC50 (read off the curve) stands for the concentration that produces a half-maximal response. Lower therefore signals greater potency. Regarding B2, the “EC50 (read off the curve)” value in assay [2] was about 10000 nM.

B3: Nb23 fused to bacterial alkaline phosphatase (VHH)
chain: QVQLQESGGGSVQVGGSLRVACAASGDTFSGYLAAWFRQAPGKGREGVAAINSKRHTTSYADSVKGRFTISKDNADNIMYLEMNSLKPEDTAIYYCAAADAIGLAEYWSTPTLSAARYKYWGQGTQVTVSSGGGSGGGVKQSTIALALLPLLFTPVTKARTPEMPLQTQATSREEPPRLPSKHRPGVKTQATSREEPPRLPSKHRPGVKTQATSREEPPRLPSKHRPGVKTQATSREEPPRLPSKHRPGVKTQATSLEVLENRAAQGDITAPGGARRLTGDQTAALRDSLSDKPAKNIILLIGDGMGDSEITAARNYAEGAGGFFKGIDALPLTGQYTHYALNKKTGKPDYVTDSAASATAWSTGVKTYNGALGVDIHEKDHPTILEMAKAAGLATGNVSTAELQDATPAALVAHVTSRKCYGPSATSEKCPGNALEKGGKGSITEQLLNARADVTLGGGAKTFAETATAGEWQGKTLREQAQARGYQLVSDAASLNSVTEANQQKPLLGLFADGNMPVRWLGPKATYHGNIDKPAVTCTPNPQRNDSVPTLAQMTDKAIELLSKNEKGFFLQVEGASIDKQDHAANPCGQIGETVDLDEAVQRALEFAKKEGNTLVIVTADHAHASQIVAPDTKAPGLTQALNTKDGAVMVMSYGNSEEDSQEHTGSQLRIAAYGPHAAHHHHHH
As to B3, the “particle diameter of the VLP saturated with the nanobody (DLS)” value (from here on “particle diameter of the VLP saturated”) in assay [3] amounted to 40 nm.

B4: Nanobody Nb23 (VHH)
VHH: QVQLQESGGGSVQVGGSLRVACAASGDTFSGYLAAWFRQAPGKGREGVAAINSKRHTTSYADSVKGRFTISKDNADNIMYLEMNSLKPEDTAIYYCAAADAIGLAEYWSTPTLSAARYKYWGQGTQVTVSS
What is called Kd is the concentration at which binding is half-saturated. Regarding B4, in assay [3], the “particle diameter of the VLP saturated” value amounted to 37.8 nm. The same molecule yielded a Kd in assay [4] of 9.13 nM.

B5: Nb23 fused to EGFP (VHH)
VHH: B4 VHH
Regarding B5, the “particle diameter of the VLP saturated” value in assay [3] came out at 43.8 nm.

B6: Strep-tagged Nbp75 (VHH)
VHH: QVQLQESGGGSVQAGGSLRLSCVASEYPSSSTAMAWFRQAPGKEREGVAAINSVRHTTSYADSVKGRFTISKDNADNMMYLEMNSLKPEDTAIYYCAAADAIGLAEYWSTPTLSAARYKYWGQGTQVTVSS
As to B6, in assay [1], the binding result is “binds”.

B7: Nbp75 fused to alkaline phosphatase (VHH)
VHH: B6 VHH
As to B7, the binding result in assay [5] is listed as “binds”.

B8: Nbp59 fused to alkaline phosphatase (VHH)
VHH: QVQLQESGGGTVQAGGSLRLSCSISGDTSNSYCMGWFRQAPGKEREVVAHISTGVISPGYNKFSEGRFTISPDNAKNSVYLQMNNLKPDDTAMYYCAARTGYCSGSWGVADSFNGWGQGTQVTVSS
With B8, the binding result in assay [6] was “binds”.

B9: Nanobody Nbp59 (VHH)
VHH: B8 VHH
On to B9, for which the equilibrium dissociation constant (Kd) in assay [7] is 12.6 nM.

B10: Strep-tagged Nbp59 (VHH)
VHH: B8 VHH
For the molecule B10, the binding result in assay [1] was “binds”.

B11: Nanobody Nb122 (VHH)
VHH: QVQLQESGGGSVQGGGSLRLSCAVSGYRFSSYAMAWFRQAPGKEREAVAAYYRGFGGAQHSTHYAASVTGRFTITQNDALNTGYLQMNNLKPEDTAMYYCALSTADDDDWHSLRRYNYWGQGTQVTVSS
In the case of B11, binding in assay [8] was put at a Kd of 34.5 nM.

B12: Strep-tagged Nb122 (VHH)
VHH: B11 VHH
In the case of B12, the binding result in assay [1] is listed as “binds”.
